Common to all, as to type: cell-based, human
Series [1] deals with PBMC cells obtained from mite allergic patients and non-allergics. The series is described as follows: Ex vivo stimulation of PBMC: cytokine production (IFN-gamma, IL-9, IL-10, IL-17, IL-31). An outline of the steps: (§1)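 Freshly isolated PBMC (5×10^6/ml) from mite-allergic patients or non-allergics cultured 5 days with test protein up to 10 ug/ml; IFN-gamma, IL-9, IL-10, IL-17, IL-31 in supernatants by multiplex immunoassay. T cell lines, raised 3 weeks on HDM extract, tested at 0.5 or 2 ug/ml protein in 72 h proliferation assay.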

Series [2] relates to T cell lines obtained from HDM allergic individuals and non-allergics. Nature of the series: In vitro T cell proliferation test in T cell lines (Example 3). Particulars: 0.5 or 2 ug/ml, 72 h; for % responders of in-vitro T cell proliferation test, Allergic: T cell lines from HDM allergic individuals (n=30); for % responders of in-vitro T cell proliferation test, Non-allergics: T cell lines from non-allergics (n=8). An outline of the steps:
as §1

The subject of series [3] is basophils in whole blood from HDM allergic donors. Nature of the series: Basophil Activation Test (BAT). Particulars: blood from HDM allergic individuals (n=14). An outline of the steps: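 Whole blood from HDM-allergic donors (n=14) was stimulated for 1 h with test proteins across a concentration range, e.g. 1, 10, 100 or 1000 ng/ml. Basophil surface activation markers were measured by flow cytometry, with Der p 1 and Der p 2 tested at the same concentrations as controls.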

This note sets out measurements from patent publication US10556936B2, “Immunogenic proteins and fragments thereof from allergenic mites” (ALK-ABELLÓ A/S, priority 2016, dated 2020).

B1: A001: house dust mite protein; SEQ ID NO: 13 (Der f), 14 (Der p); recombinant test protein (protein)
chain: KKSPDCDIERPIRECLKDGLLRYSSGQKINQFPDTIQDLNRACEELKKSETCARTFIDTCTESSYEKRSLDSLLDGIQRVMKRLCRSQTKKEKLLENVGCANSVVQDTKQCLKNYRMLVFAANKLDNKNKIMRILCCKSRKVAPCIGEAMKAKGTAVCSAKNIDYFKDVHQNIKQEMTAVVCSDFERDQCENVDVPNISESEYKDQNIFNPLRDLYKKVILG
As to B1, in series [1], the “% HDM allergic individuals with cytokine production in ex-vivo T cell assay IL-5” value turned out to be 6%, the “% HDM allergic individuals with cytokine production in ex-vivo T cell assay IL-9” value worked out at 0%, the “% HDM allergic individuals with cytokine production in ex-vivo T cell assay IL-10” value is reported as 75% and the “% HDM allergic individuals with cytokine production in ex-vivo T cell assay IL-13” value amounted to 6%. In series [1], the “% HDM allergic individuals with cytokine production in ex-vivo T cell assay IL-17” value is 25%, the “% HDM allergic individuals with cytokine production in ex-vivo T cell assay IL-31” value is listed as 0%, the “% HDM allergic individuals with cytokine production in ex-vivo T cell assay INF-g” value was determined as 6% and the “% non-allergic individuals with cytokine production in ex-vivo T cell assay IL-5” value is 0%. For the same molecule, in series [1], the “% non-allergic individuals with cytokine production in ex-vivo T cell assay IL-9” value came out at 0%, the “% non-allergic individuals with cytokine production in ex-vivo T cell assay IL-10” value was 100%, the “% non-allergic individuals with cytokine production in ex-vivo T cell assay IL-13” value is 0% and the “% non-allergic individuals with cytokine production in ex-vivo T cell assay IL-17” value is listed as 50%. Moreover, in series [1], the “% non-allergic individuals with cytokine production in ex-vivo T cell assay IL-31” value is reported as 0% and the “% non-allergic individuals with cytokine production in ex-vivo T cell assay INF-g” value is 0%. Also, in series [2], the “% responders of in-vitro T cell proliferation test, Allergic” value stood at 17% and the “% responders of in-vitro T cell proliferation test, Non-allergics” value (“% responders … Non-allergics” below) worked out at 0%. Moreover, the “# of individuals of 14 with positive BAT test” value in series [3] (1 ng/ml) was determined as 0. Moreover, in series [3] (10 ng/ml), the “# of individuals of 14 with positive BAT test” value came out at 0. For the same molecule, the “# of individuals of 14 with positive BAT test” value in series [3] (100 ng/ml) was 1. In series [3] (1000 ng/ml), the “# of individuals of 14 with positive BAT test” value was 2.

B2: A007: house dust mite protein; SEQ ID NO: 30 (Der f), 31 (Der p), 306 (Blo t) (protein)
chain: MAKFNYLPVDVQEELRNTANAIVSVGKGILAADESTGTIGKRFADINVENVEQNRQAYRQLLFYSEGIEQYISGVILFDETVYQKDDKGVPFPELLKKKGIIPGIKVDTGVVTLQGTNGESTTQGLDNLTKRCQEYYNQGCRFAKWRCVLKIGQDEPSSLAIVENANVLARYASCCQQARIVPIVEPEILPDGDHNLERCQKVTETVLAAVYKALNDHHVYLEGTLLKPNMVTPGQSCPQKASPQEVAQATVTALQRTVPAAVPGIVFLSGGQSEEEASVNLNAINQYQGKKPWALSFSYGRALQASALRAWQGKPENIGAGQKELLQRAKANVLAHKGQYVAGSIPSLASAKSNFVAQHKY
For B2, in series [1], the “% HDM allergic individuals with cytokine production in ex-vivo T cell assay IL-5” value is given as 6%, the “% HDM allergic individuals with cytokine production in ex-vivo T cell assay IL-9” value is 6%, the “% HDM allergic individuals with cytokine production in ex-vivo T cell assay IL-10” value is given as 44% and the “% HDM allergic individuals with cytokine production in ex-vivo T cell assay IL-13” value stood at 19%. In series [1], the “% HDM allergic individuals with cytokine production in ex-vivo T cell assay IL-17” value came out at 38%, the “% HDM allergic individuals with cytokine production in ex-vivo T cell assay IL-31” value was 0%, the “% HDM allergic individuals with cytokine production in ex-vivo T cell assay INF-g” value stood at 31% and the “% non-allergic individuals with cytokine production in ex-vivo T cell assay IL-5” value is 0%. Also, in series [1], the “% non-allergic individuals with cytokine production in ex-vivo T cell assay IL-9” value was found to be 0%, the “% non-allergic individuals with cytokine production in ex-vivo T cell assay IL-10” value was determined as 83%, the “% non-allergic individuals with cytokine production in ex-vivo T cell assay IL-13” value was determined as 0% and the “% non-allergic individuals with cytokine production in ex-vivo T cell assay IL-17” value worked out at 67%. In series [1], the “% non-allergic individuals with cytokine production in ex-vivo T cell assay IL-31” value turned out to be 0% and the “% non-allergic individuals with cytokine production in ex-vivo T cell assay INF-g” value was 33%. Moreover, in series [2], the “% responders of in-vitro T cell proliferation test, Allergic” value is 21% and the “% responders … Non-allergics” value was 38%. Further, in series [3] (1 ng/ml), the “# of individuals of 14 with positive BAT test” value is listed as 0. Also, the “# of individuals of 14 with positive BAT test” value in series [3] (10 ng/ml) worked out at 0. Also, the “# of individuals of 14 with positive BAT test” value in series [3] (100 ng/ml) is given as 0. Moreover, in series [3] (1000 ng/ml), the “# of individuals of 14 with positive BAT test” value was found to be 0.

B3: Derp2: major house dust mite allergen, group 2, Dermatophagoides pteronyssinus; control (protein, UniProt P49278 18-146, looked up)
Mite group 2 allergen Der p 2: DQVDVKDCANHEIKKVLVPGCHGSEPCIIHRGKPFQLEAVFEANQNTKTAKIEIKASIDGLEVDVPGIDPNACHYMKCPLVKGQQYDIKYTWNVPKIAPKSENVVVTVKVMGDDGVLACAIATHAKIRD
As for B3, in series [1], the “% HDM allergic individuals with cytokine production in ex-vivo T cell assay IL-5” value is reported as 56%, the “% HDM allergic individuals with cytokine production in ex-vivo T cell assay IL-9” value is listed as 31%, the “% HDM allergic individuals with cytokine production in ex-vivo T cell assay IL-10” value is reported as 56% and the “% HDM allergic individuals with cytokine production in ex-vivo T cell assay IL-13” value is recorded as 50%. Further, in series [1], the “% HDM allergic individuals with cytokine production in ex-vivo T cell assay IL-17” value stood at 0%, the “% HDM allergic individuals with cytokine production in ex-vivo T cell assay IL-31” value was 6%, the “% HDM allergic individuals with cytokine production in ex-vivo T cell assay INF-g” value was 0% and the “% non-allergic individuals with cytokine production in ex-vivo T cell assay IL-5” value is 0%. Besides, in series [1], the “% non-allergic individuals with cytokine production in ex-vivo T cell assay IL-9” value is listed as 0%, the “% non-allergic individuals with cytokine production in ex-vivo T cell assay IL-10” value was 17%, the “% non-allergic individuals with cytokine production in ex-vivo T cell assay IL-13” value is 0% and the “% non-allergic individuals with cytokine production in ex-vivo T cell assay IL-17” value was 0%. For the same molecule, in series [1], the “% non-allergic individuals with cytokine production in ex-vivo T cell assay IL-31” value came out at 0% and the “% non-allergic individuals with cytokine production in ex-vivo T cell assay INF-g” value was 0%. Further, in series [2], the “% responders of in-vitro T cell proliferation test, Allergic” value came out at 57% and the “% responders … Non-allergics” value is listed as 0%. Moreover, the “# of individuals of 14 with positive BAT test” value in series [3] (1 ng/ml) is listed as 13. In addition, the “# of individuals of 14 with positive BAT test” value in series [3] (10 ng/ml) was 13. In series [3] (100 ng/ml), the “# of individuals of 14 with positive BAT test” value turned out to be 13. In addition, the “# of individuals of 14 with positive BAT test” value in series [3] (1000 ng/ml) is recorded as 13.

B4: A003: house dust mite protein; SEQ ID NO: 2 (Der f), 3 (Der p), 305 (Blo t) (protein)
chain: MAIDGKYQMESSEHFEEFVKEMGLDVDMTNVDLSKTSTMEICKDGDVYHIKSETAGIAHEIKFKVGEEFEDDMNGHKFKNVVTMECDNKMVQKKTSADGGKVVNVVREFTDAGCTVKSTYNTVTWTRVYKRM
With B4, in series [1], the “% HDM allergic individuals with cytokine production in ex-vivo T cell assay IL-5” value is given as 6%, the “% HDM allergic individuals with cytokine production in ex-vivo T cell assay IL-9” value was found to be 0%, the “% HDM allergic individuals with cytokine production in ex-vivo T cell assay IL-10” value amounted to 19% and the “% HDM allergic individuals with cytokine production in ex-vivo T cell assay IL-13” value stood at 13%. For the same molecule, in series [1], the “% HDM allergic individuals with cytokine production in ex-vivo T cell assay IL-17” value turned out to be 13%, the “% HDM allergic individuals with cytokine production in ex-vivo T cell assay IL-31” value worked out at 0%, the “% HDM allergic individuals with cytokine production in ex-vivo T cell assay INF-g” value was determined as 0% and the “% non-allergic individuals with cytokine production in ex-vivo T cell assay IL-5” value is 0%. Moreover, in series [1], the “% non-allergic individuals with cytokine production in ex-vivo T cell assay IL-9” value is on record as 0%, the “% non-allergic individuals with cytokine production in ex-vivo T cell assay IL-10” value stood at 17%, the “% non-allergic individuals with cytokine production in ex-vivo T cell assay IL-13” value is reported as 0% and the “% non-allergic individuals with cytokine production in ex-vivo T cell assay IL-17” value stood at 17%. Moreover, in series [1], the “% non-allergic individuals with cytokine production in ex-vivo T cell assay IL-31” value is given as 0% and the “% non-allergic individuals with cytokine production in ex-vivo T cell assay INF-g” value was 0%. Further, in series [2], the “% responders of in-vitro T cell proliferation test, Allergic” value was determined as 3% and the “% responders … Non-allergics” value was 0%. The “# of individuals of 14 with positive BAT test” value in series [3] (1 ng/ml) was 0. The “# of individuals of 14 with positive BAT test” value in series [3] (10 ng/ml) is 0. Moreover, the “# of individuals of 14 with positive BAT test” value in series [3] (100 ng/ml) was found to be 0. Moreover, the “# of individuals of 14 with positive BAT test” value in series [3] (1000 ng/ml) is recorded as 1.
